Target: the molecule itself
Assay: AUC; sedimentation equilibrium; 0.5, 0.17 and 0.06 mg/ml in PBS, 20°C, 18,000 rpm, 24 h; Monomer-Nmer model (HeteroAnalysis); monomer to trimer

B1: ATF7-pII leucine zipper-TRAIL (ligand, human)
chain: VSSIEKKIEEITSQIIQISNEITLIRNEIAQIKQKGSGQRVAAHITGTRGRSNTLSSPNSKNEKALGRKINSWESSRSGHSFLSNLHLRNGELVIHEKGFYYIYSQTYFRFQEEIKENTKNDKQMVQYIYKYTSYPDPILLMKSARNSCWSKDAEYGLYSIYQGGIFELKENDRIFVSVTNEHLIDMDHEASFFGAFLVG
notes: linker between the leucine zipper and TRAIL; Tumor necrosis factor-Related Apoptosis-Inducing Ligand (TRAIL), human, Gln120-Gly281; No tag is stated; the calculated trimer mass of 69.0 kDa fits zipper + linker + TRAIL 120-281 without a tag; also called ATF7-TRAIL; ATF7 leucine zipper-TRAIL; source: P. pastoris (pGAPZα), secreted, purified (Co2+-metal chelating chromatography, 0 to 25 mM imidazole …)
stoichiometry N: 3
